The values that follow come from PMC5113954, “Characterization of the Sucrose Phosphate Phosphatase (SPP) Isoforms from Arabidopsis thaliana and Role of the S6PPc Domain in Dimerization” (PLoS ONE, 2016).

One series has as its target T1, SPP3b (Arabidopsis thaliana, UniProt Q93XN8).
T1 construct: about 52 kDa subunit, about 90 kDa dimer; cDNA from RIKEN
T1 sequence (Q93XN8 1-423): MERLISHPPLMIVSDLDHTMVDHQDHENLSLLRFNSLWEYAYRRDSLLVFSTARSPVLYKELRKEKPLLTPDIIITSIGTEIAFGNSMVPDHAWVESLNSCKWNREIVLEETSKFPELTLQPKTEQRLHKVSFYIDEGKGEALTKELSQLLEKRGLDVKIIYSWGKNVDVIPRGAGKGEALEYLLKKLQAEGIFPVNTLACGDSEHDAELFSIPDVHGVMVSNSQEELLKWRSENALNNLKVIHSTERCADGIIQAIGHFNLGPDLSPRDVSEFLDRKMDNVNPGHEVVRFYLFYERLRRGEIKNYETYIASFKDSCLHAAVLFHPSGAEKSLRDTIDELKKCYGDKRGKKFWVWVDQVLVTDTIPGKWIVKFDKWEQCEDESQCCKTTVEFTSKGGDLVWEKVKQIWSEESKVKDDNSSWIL
The experiment in a line: inhibition of Pi release from Suc6P (SnCl2-molybdate). The series is classed as biochemical.

The target in series [1] is Chimeric Synechocystis SPP fused at its C-terminus to the S6PPc domain of Arabidopsis SPP2 (SynSPP+S6PPc), His-tagged, from E. coli (Synechocystis sp. PCC 6803 | Arabidopsis thaliana). The experiment in a line: SEC; gel filtration of the purified His-tagged proteins; eluted fractions immunoblotted with anti-His antibodies (Fig 7, S1 Fig).
The next series addresses T2, S6PP domain of SPP2 (Arabidopsis thaliana, UniProt Q9SJ66).
T2 construct: N-terminal S6PP (HAD) domain only, C-terminal S6PPc domain removed; ends at ...IGHFKL by reverse primer P11; N-terminal His10 tag (pET-19b), E. coli; about 30 kDa monomer
The experiment in a line: Pi release (SnCl2-molybdate), specific activity. To be noted: 1.25 mM Suc6P; 8 mM MgCl2, pH 7.0, 37 °C. The series is classed as biochemical.

For a further series, the target named is T3, SynSPP (Synechocystis sp. PCC 6803, UniProt P74325).
T3 construct: gene slr0953; full length, N-terminal His6 tag (pQE-80L), E. coli BL21(DE3)
T3 sequence (P74325 entry or part of it): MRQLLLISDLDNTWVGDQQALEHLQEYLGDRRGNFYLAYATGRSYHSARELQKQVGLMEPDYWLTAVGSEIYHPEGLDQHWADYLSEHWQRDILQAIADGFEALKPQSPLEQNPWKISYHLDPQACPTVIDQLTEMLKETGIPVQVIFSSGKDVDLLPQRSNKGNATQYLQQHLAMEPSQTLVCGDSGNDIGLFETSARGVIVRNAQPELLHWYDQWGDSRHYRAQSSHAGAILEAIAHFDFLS
The experiment in a line: Pi release (SnCl2-molybdate), specific activity. The series is classed as biochemical. To be noted: 1.25 mM Suc6P; 8 mM MgCl2, pH 7.0, 37 °C.

Series [2] concerns the molecule itself. The experiment in a line: SEC; Superose 12 10/300 GL, 25 mM HEPES-KOH pH 7.5, 150 mM KCl, 1 mM PMSF, without Mg2+, 0.4 ml/min; fractions followed by A280 and SPP activity; mass from a calibration curve of standards. For orientation: Size exclusion chromatography separates by hydrodynamic size, large species first.
Substrate in series [3]: O=P(O)(O)OC[C@H]1O[C@@](CO)(O[C@H]2O[C@H](CO)[C@@H](O)[C@H](O)[C@H]2O)[C@@H](O)[C@@H]1O
As to the kind of experiment: Pi release (SnCl2-molybdate), nonlinear regression. Conditions: 25 mM HEPES-KOH pH 7.0, 8 mM MgCl2, 37 °C. It counts as biochemical, Arabidopsis thaliana. The text has this: Pi release (SnCl2-molybdate), nonlinear regression on SPP2

Substrate in series [4]: O=P(O)(O)OC[C@H]1O[C@@](CO)(O[C@H]2O[C@H](CO)[C@@H](O)[C@H](O)[C@H]2O)[C@@H](O)[C@@H]1O
As to the kind of experiment: Pi release (SnCl2-molybdate), nonlinear regression. It counts as biochemical, Arabidopsis thaliana. Conditions: 25 mM HEPES-KOH pH 7.0, 8 mM MgCl2, 37 °C. The text has this:
Pi release (SnCl2-molybdate), nonlinear regression on SPP3b
The source holds these as a separate data set.

Substrate in series [5]: O=P(O)(O)OC[C@H]1O[C@@](CO)(O[C@H]2O[C@H](CO)[C@@H](O)[C@H](O)[C@H]2O)[C@@H](O)[C@@H]1O
As to the kind of experiment: Pi release (SnCl2-molybdate), nonlinear regression. The series is classed as biochemical, Arabidopsis thaliana. To be noted: 25 mM HEPES-KOH pH 7.0, 8 mM MgCl2, 37 °C. The text has this:
Pi release (SnCl2-molybdate), nonlinear regression on SPP3a
The source holds these as a separate data set.

Consider `OC[C@H]1O[C@@](CO)(O[C@H]2O[C@H](CO)[C@@H](O)[C@H](O)[C@H]2O)[C@@H](O)[C@@H]1O` [sucrose], for which, at SPP3b, the affinity, expressed as Ki, was 24 mM.
“Chimeric Synechocystis SPP fused at its C-terminus to the S6PPc domain of Arabidopsis SPP2 (SynSPP+S6PPc), His-tagged, from E. coli (enzyme)”: the stoichiometry N (as a rule, a count of units in the complex or per binding partner) in series [1] was 2.
Regarding `O=P(O)(O)OC[C@H]1O[C@@](CO)(O[C@H]2O[C@H](CO)[C@@H](O)[C@H](O)[C@H]2O)[C@@H](O)[C@@H]1O` [Suc6P], the “Pi release (SnCl2-molybdate), specific activity” value on S6PP domain of SPP2 was “with an activity significantly lower than the native protein”; at SynSPP, “The activity of each protein or chimera was determined as described in Materials and Methods”.

B1: Arabidopsis thaliana sucrose-phosphate phosphatase isoform SPP2, recombinant Nt-Histag (His10-SPP2, pET-19b) (enzyme, UniProt Q9SJ66 1-422, looked up)
chain: MERLTSPPRLMIVSDLDHTMVDHHDPENLSLLRFNSLWEHAYRHDSLLVFSTGRSPTLYKELRKEKPLLTPDITIMSVGTEITYGNSMVPDHGWVEALNNKWDLGIVKQEASNFPELKLQAETEQRPHKVSFYVEKSKAQEVTKELSQRFLKRGLDVKIIYSGGMDLDILPQGAGKGQALAYLLKKLKTEGKLPVNTLACGDSGNDAELFSIPDVYGVMVSNAQEELLKWHAENAKDNPKVIHAKERCAGGIIQAIGHFKLGPNLSPRDVSDFLEIKVENVNPGHEVVKFFLFYERWRRGEVENSEAYTASLKASVHPGGVFVHPSGTEKSLRDTIDELRKYHGDKQGKKFRVWADQVLATDTTPGTWIVKLDKWEQDGDERRCCTTTVKFTSKEGEGLVWEHVQQTWSKETMVKDDSSWII
notes: Sucrose-phosphate phosphatase SPP2 of Arabidopsis thaliana (At2g35840); cDNA from RIKEN, amplified with primers P5 (start codon) and P6 (stop codon); also called Nt-Histag SPP2; SSP2; source: E. coli BL21 (DE3), purified (HisTrap HP, Superose 12); not shown: His10, N-terminal, kept
For the molecule B1, the “stoichiometry N” value in series [2] worked out at 2. Moreover, in series [3], the Km (commonly the substrate concentration at which the rate is half of its maximum) came out at 730 ± 320 µM; the kcat (in general, the maximal rate divided by the concentration of active sites) came to 67.8 s⁻¹; the specificity constant (kcat/Km) (in general, the turnover number divided by the Michaelis constant) amounted to 92500 M⁻¹ s⁻¹.

B2: Arabidopsis thaliana sucrose-phosphate phosphatase isoform SPP3b, recombinant Nt-Histag (His10-SPP3b, pET-19b) (enzyme, UniProt Q93XN8 1-423, looked up)
chain: T1 sequence (Q93XN8 1-423)
notes: Sucrose-phosphate phosphatase SPP3b of Arabidopsis thaliana (At3g52340); cDNA from RIKEN, amplified with primers P9 (start codon) and P10 (stop codon); source: E. coli BL21 (DE3), purified (HisTrap HP, Superose 12); not shown: His10, N-terminal, kept
Consider B2, for which the “stoichiometry N” value in series [2] was determined as 2. Further, in series [4], the Km came out at 3460 ± 710 µM, the kcat worked out at 3.59 s⁻¹ and the kcat/Km is 1040 M⁻¹ s⁻¹.

B3: Arabidopsis thaliana sucrose-phosphate phosphatase isoform SPP3a, recombinant Nt-Histag (His10-SPP3a, pET-19b) (enzyme, UniProt Q93WU4 1-425, looked up)
chain: MDRLEGPPRLILVADLDCTLVDHDDPENNDLLRFNALWEAHYRHDSLLVYCTGRSFSSYSSLRKKRPLLTPDIAVTSVGSEIVYGGGESTVSDVVWTARLDYKWNRDIVVEETLKFPKLEPQPDKSQEEHKVSFFVGREDAVEIMKVLPGILEERGVDVKLVYSNGYAFDVLPRGAGKQGALTYLLDKLDIEGKQPSNTLVCGDSGNDAELFNISDVYGVMVSNSHEELLQWYEENAKDNPKIFHASERCGAGMIEAIQRFNLGPNVSPRDVMDTENFHGESLNPAHEVVQFYLFYERWRCGEVEKSDKYLQNLKSLSSPLGIFVHPSGVEKPIHEWIDEMENLYGDGKEKKFRIWLDNVTSSHISSDTWLAKFVKHELSEGKVRSCSTKVLLSYKEEKQRLTWMHIHQSWLDESSSDDQEKWIF
notes: Sucrose-phosphate phosphatase SPP3a of Arabidopsis thaliana (At3g54270); amplified from rosette leaf cDNA with primers P7 (start codon) and P8 (stop codon); source: E. coli BL21 (DE3), purified (HisTrap HP, Superose 12); not shown: His10, N-terminal, kept
In the case of B3, the “stoichiometry N” value in series [2] was 2. Moreover, in series [5], the Km was 870 ± 390 µM, the kcat is 0.396 s⁻¹ and the kcat/Km is 454 M⁻¹ s⁻¹.
